The assay addresses T1, BACE2 (Homo sapiens, UniProt Q9Y5Z0).
T1 construct: purchased R&D Systems
T1 sequence (Q9Y5Z0 63-518): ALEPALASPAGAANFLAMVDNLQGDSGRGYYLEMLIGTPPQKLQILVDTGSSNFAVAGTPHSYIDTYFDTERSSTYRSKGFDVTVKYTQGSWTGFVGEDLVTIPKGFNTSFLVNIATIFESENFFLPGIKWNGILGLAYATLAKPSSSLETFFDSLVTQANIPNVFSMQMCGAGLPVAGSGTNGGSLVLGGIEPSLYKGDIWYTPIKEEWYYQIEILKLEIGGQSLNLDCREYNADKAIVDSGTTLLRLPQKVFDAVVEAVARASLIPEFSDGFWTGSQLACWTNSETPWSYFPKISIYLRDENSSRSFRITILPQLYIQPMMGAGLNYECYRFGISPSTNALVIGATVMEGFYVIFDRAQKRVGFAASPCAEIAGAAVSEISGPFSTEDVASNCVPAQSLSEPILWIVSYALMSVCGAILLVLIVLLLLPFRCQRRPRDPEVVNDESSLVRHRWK
Kind of assay: Cleavage of biotinylated Aβ by BACE2, immunoprecipitation/mass spectrometry (IP/MS). To be noted: peptide 300 nM, BACE2 5 nM, within 1 h; 25 mM acetate buffer pH 4.0, 0.1% BSA; product Aβ34; SELDI-TOF MS. Type of assay: biochemical. Here is the method:
We next investigated which peptide bond(s) within Aβ are hydrolyzed by BACE2 and BACE1. To that end, we co-incubated N-terminally biotinylated Aβ40 or Aβ42 (300nM) with BACE2 (5 nM) and analyzed the products by immunoprecipitation/mass spectrometry (IP/MS) (see Methods). […] To test whether any additional cleavages can occur, we incubated N-terminally biotinylated Aβ40 (300 nM) with a larger amount of BACE2 (25 nM) for 1 and 24 h. At these higher concentrations and longer incubation times, Aβ19 and Aβ20 were the principal N-terminal fragments remaining at the end of the reaction (Figure 3E-F).
The cleavage sites within Aβ40 and Aβ42 hydrolyzed by BACE2 and BACE1 were determined essentially as described with minor modifications. Briefly, Aβ peptides or biotinylated Aβ peptides were incubated for various lengths of time with recombinant BACE2 enzyme in Assay Buffer (25 mM acetate buffer, pH 4.0, supplemented with 0.1% BSA). The reaction was stopped by addition of protease inhibitor cocktail and pH adjustment. Aβ fragments were immediately precipitated by magnetic beads coated with streptavidin (for biotinylated Aβ) or magnetic beads coated with Ab9 antibody (for unmodified Aβ). […] Digested products were spotted onto a gold chip, dried, and analyzed using a Ciphergen ProteinChip SELDI time-of-flight system (Bio-Rad). […]

“N-terminally biotinylated Aβ40: Aβ40 biotinylated at the N-terminus, substrate for IP/MS”: the “extent of hydrolysis by BACE2” value is recorded as “almost completely hydrolyzed”.
As for “N-terminally biotinylated Aβ42: Aβ42 biotinylated at the N-terminus, substrate for IP/MS”, the entry is “almost completely hydrolyzed”.

These data come from paper PMC3470943, “Identification of BACE2 as an avid ß-amyloid-degrading protease” (Molecular Neurodegeneration, 2012).
